According to patent CN110982824A:

Tests used:
PD-L1 [1] = target: PD-L1 (UniProt Q9NZQ7); test: ELISA, PD-L1 coated, BP at 200 μg/ml, reference PD-1 binding PD-L1
PD-L1 [2] = target: PD-L1 (UniProt Q9NZQ7); test: competition ELISA, PD-1 at 50 μg/ml, BP at 200 μg/ml

UniProt Q9NZQ7, sequence (Q9NZQ7 19-238 limits assumed): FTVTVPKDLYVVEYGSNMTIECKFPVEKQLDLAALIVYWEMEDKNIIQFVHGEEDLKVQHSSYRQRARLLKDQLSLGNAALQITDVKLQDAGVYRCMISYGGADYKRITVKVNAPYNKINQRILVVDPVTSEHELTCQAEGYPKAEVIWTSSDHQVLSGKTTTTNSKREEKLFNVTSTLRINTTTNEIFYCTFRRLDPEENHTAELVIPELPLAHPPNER

B1: 拮抗PD-1的抗体类似物BP蛋白 (VHH, not shown: small tags and cut ends)
VHH: DVQLQASGGGSVQAGGSLRLSCAASGYTIGTYAISWFRQAPGKEREGVAGIIPIFGKAHTYYADSVKGRFTISQDNAKNTVYLLMNSLEPEDTAIYYCAAKFHFVSGSPFGMDSWGQGTQVTVSS
结合强度 (relative to PD-1 binding PD-L1) (PD-L1 [1]): 115% | 抑制率 (inhibition of PD-1 binding to PD-L1) (PD-L1 [2]): 25%
